Results reported in the Immune Epitope Database (IEDB).

What was measured:
[1] = molecular target: HLA-B*58:01; assay: IEDB peptide-MHC binding, purified MHC/competitive/radioactivity; filed as Kd, often an IC50 or EC50 that approximates it; ≥ and ≤ were set here for values at or beyond the usual limits of such assays
[2] = molecular target: HLA-B*15:17; assay: IEDB peptide-MHC binding, purified MHC/direct/fluorescence; filed as Kd, often an IC50 or EC50 that approximates it; ≥ and ≤ were set here for values at or beyond the usual limits of such assays
[3] = molecular target: HLA-B*57:01; assay: as above
[4] = molecular target: HLA-B*58:01; assay: as above
[5] = molecular target: HLA-A*11:01; assay: IEDB peptide-MHC binding, purified MHC/competitive/fluorescence; ≥ and ≤ were set here for values at or beyond the usual limits of such assays
[6] = molecular target: HLA-B*07:02; assay: IEDB peptide-MHC binding, purified MHC/direct/fluorescence; filed as Kd, often an IC50 or EC50 that approximates it; ≥ and ≤ were set here for values at or beyond the usual limits of such assays
[7] = molecular target: HLA-B*15:01; assay: as above; conditions: source organism: Giardia lamblia ATCC 50803
[8] = molecular target: HLA-A*11:01; assay: as above
[9] = molecular target: HLA-A*31:01; assay: as above
[10] = molecular target: HLA-A*69:01; assay: as above
[11] = molecular target: HLA-B*48:01; assay: as above
[12] = molecular target: HLA-A*68:02; assay: as above
[13] = molecular target: HLA-A*03:01; assay: as above
[14] = molecular target: HLA-B*46:01; assay: as above; conditions: source organism: Giardia lamblia ATCC 50803
[15] = molecular target: HLA-B*18:01; assay: as above
[16] = molecular target: HLA-A*02:01; assay: as above
[17] = molecular target: HLA-B*40:01; assay: as above
[18] = molecular target: HLA-B*27:05; assay: as above
[19] = molecular target: HLA-A*01:01; assay: as above
[20] = molecular target: HLA-A*23:01; assay: IEDB peptide-MHC binding, purified MHC/competitive/radioactivity; filed as Kd, often an IC50 or EC50 that approximates it; ≥ and ≤ were set here for values at or beyond the usual limits of such assays; conditions: source organism: Dengue virus 2 Jamaica/1409/1983
[21] = molecular target: HLA-A*24:02; assay: as above; conditions: source organism: Dengue virus 2 Jamaica/1409/1983
[22] = molecular target: HLA-A*32:01; assay: as above; conditions: source organism: Dengue virus 2 Peru/IQT2913/1996
[23] = molecular target: HLA-B*57:01; assay: as above
[24] = molecular target: HLA-B*08:01; assay: IEDB peptide-MHC binding, purified MHC/direct/fluorescence; filed as Kd, often an IC50 or EC50 that approximates it; ≥ and ≤ were set here for values at or beyond the usual limits of such assays; conditions: source organism: Mammarenavirus lassaense
[25] = molecular target: HLA-B*44:02; assay: as above
[26] = molecular target: HLA-A*02:01; assay: IEDB peptide-MHC binding, purified MHC/competitive/fluorescence; ≥ and ≤ were set here for values at or beyond the usual limits of such assays; conditions: source organism: Zaire ebolavirus
[27] = molecular target: HLA-A*31:01; assay: IEDB peptide-MHC binding, purified MHC/competitive/fluorescence; filed as Kd, often an IC50 or EC50 that approximates it; ≥ and ≤ were set here for values at or beyond the usual limits of such assays
[28] = molecular target: HLA-A*24:02; assay: IEDB peptide-MHC binding, purified MHC/competitive/fluorescence; ≥ and ≤ were set here for values at or beyond the usual limits of such assays; conditions: source organism: Zaire ebolavirus
[29] = molecular target: HLA-B*53:01; assay: IEDB peptide-MHC binding, purified MHC/competitive/radioactivity; filed as Kd, often an IC50 or EC50 that approximates it; ≥ and ≤ were set here for values at or beyond the usual limits of such assays; conditions: source organism: Dengue virus 2 Jamaica/1409/1983
[30] = molecular target: HLA-A*31:01; assay: as above; conditions: source organism: Dengue virus 2 Jamaica/1409/1983
[31] = molecular target: HLA-A*68:01; assay: as above; conditions: source organism: Dengue virus 2 Jamaica/1409/1983
[32] = molecular target: HLA-A*68:02; assay: IEDB peptide-MHC binding, purified MHC/competitive/fluorescence; filed as Kd, often an IC50 or EC50 that approximates it; ≥ and ≤ were set here for values at or beyond the usual limits of such assays; conditions: source organism: Toxoplasma gondii
[33] = molecular target: HLA-A*02:12; assay: IEDB peptide-MHC binding, purified MHC/direct/fluorescence; filed as Kd, often an IC50 or EC50 that approximates it; ≥ and ≤ were set here for values at or beyond the usual limits of such assays; conditions: source organism: Ravn virus - Ravn, Kenya, 1987
[34] = source organism: Rickettsia prowazekii
[35] = source organism: Sudan ebolavirus
[36] = source organism: Giardia lamblia ATCC 50803
[37] = source organism: Dengue virus 2 Jamaica/1409/1983
[38] = source organism: Dengue virus 2 Peru/IQT2913/1996
[39] = source organism: Dengue virus 1 Brazil/97-11/1997
[40] = source organism: Mammarenavirus lassaense
[41] = source organism: Zaire ebolavirus
[42] = source organism: Mammarenavirus juninense
[43] = source organism: Rickettsia massiliae
[44] = source organism: Coxiella burnetii
[45] = source organism: Dengue virus 4 Philippines/H241/1956
[46] = source organism: Yellow fever virus 1899/81
[47] = source organism: West Nile virus
[48] = source organism: Camelpox virus M-96
[49] = source organism: Dengue virus 1 Singapore/S275/1990
[50] = source organism: Lassa virus GA391
[51] = source organism: Vibrio vulnificus
[52] = source organism: Salmonella enterica
[53] = source organism: Marburg virus - Musoke, Kenya, 1980

KAAVEDEEFW showed a Kd ([1]; source organism: Dengue virus 3 Sri Lanka/1266/2000) of 11.4 nM.
For STYGISEDL, the Kd [2, 34] was 256 nM, the Kd [3, 34] was no less than 20000 nM and the Kd [4, 34] was no less than 20000 nM.
In the case of NPLPNQDND, the IC50 [5, 35] is reported as no less than 163000 nM.
RIGGVLIFR gave a Kd [6, 36] of no less than 20000 nM, a Kd [7] of no less than 20000 nM and a Kd [8, 36] of 32.5 nM. For the same sequence, the Kd [9, 36] was 11 nM, the Kd [10, 36] was no less than 20000 nM and the Kd [11, 36] was no less than 20000 nM. For the same sequence, the Kd [12, 36] was no less than 20000 nM, the Kd [13, 36] was 69.5 nM and the Kd [14] was no less than 20000 nM. For the same sequence, the Kd [15, 36] was no less than 20000 nM, the Kd [16, 36] was no less than 20000 nM and the Kd [3, 36] was no less than 20000 nM. It also gave a Kd [17, 36] of no less than 20000 nM, a Kd [18, 36] of no less than 5000 nM and a Kd [19, 36] of no less than 20000 nM. For the same sequence, the Kd [4, 36] was 6000 nM.
In the case of TWSIHAKHEW, the Kd [20] is reported as 1950 nM, the Kd [21] is reported as 39.9 nM and the Kd [1, 37] is reported as 14.8 nM.
KSYAQMWSL showed a Kd [22] of 6.3 nM, a Kd [23, 38] of 5.58 nM and a Kd [1, 38] of 3.99 nM.
Work on WSSFKKNGAI yielded a Kd [23, 39] of 1020 nM and a Kd [1, 39] of 5310 nM.
In the case of KAMSTPFSL, the Kd [2, 36] is reported as 1.3 nM, the Kd [3, 36] is reported as 84.9 nM and the Kd [4, 36] is reported as 15.3 nM.
Work on FVRSSPANF yielded a Kd [8, 40] of no less than 20000 nM, a Kd [9, 40] of no less than 20000 nM and a Kd [10, 40] of no less than 20000 nM. The Kd [11, 40] was no less than 20000 nM, the Kd [13, 40] was no less than 20000 nM and the Kd [15, 40] was no less than 20000 nM. It also gave a Kd [16, 40] of no less than 20000 nM, a Kd [24] of 2100 nM and a Kd [17, 40] of no less than 20000 nM. For the same sequence, the Kd [18, 40] was no less than 20000 nM, the Kd [19, 40] was no less than 20000 nM and the Kd [4, 40] was no less than 20000 nM. It also gave a Kd [25, 40] of no less than 20000 nM.
With NTIAGVAGL the IC50 [5, 41] was no less than 144000 nM and the IC50 [26] was 32000 nM.
Sequence NSSVNVSLTA has a Kd [23, 37] of 433 nM and a Kd [1, 37] of 10 nM.
With KLNKFISPK the Kd [13, 42] was 222 nM and the Kd [27, 42] was 26 nM.
Sequence AVFVDENQW has a Kd [23, 39] of 0.913 nM.
In the case of MGFGHRIYK, the Kd [8, 43] is reported as 3.2 nM, the Kd [13, 43] is reported as 3.7 nM and the Kd ([27]; source organism: Dictyostelium discoideum) is reported as 1.43 nM.
KTSLCLMMML gave a Kd ([23]; source organism: Dengue virus 3 China/80-2/1980) of 18.8 nM.
Work on EAIVNAQPK yielded an IC50 [5, 41] of 34900 nM and an IC50 [28] of 28400 nM.
HSGDSSCAF showed a Kd [2, 44] of 252 nM, a Kd [3, 44] of no less than 20000 nM and a Kd [4, 44] of 750 nM.
Sequence LSSTRVPNYN has a Kd [23, 45] of 5970 nM and a Kd [1, 45] of 202 nM.
KSAHGSPTF gave a Kd [2, 46] of 4.9 nM and a Kd [3, 46] of 1260 nM.
For RTLGSFTWF, the Kd [2, 40] was no more than 1 nM and the Kd [4, 40] was 13.8 nM.
RRWCFDGPR was tested, and the Kd [11, 47] was no less than 20000 nM.
In the case of YERGNIIIF, the Kd [6, 48] is reported as no less than 20000 nM, the Kd [8, 48] is reported as no less than 20000 nM and the Kd [9, 48] is reported as no less than 20000 nM. It also gave a Kd [10, 48] of no less than 20000 nM, a Kd [11, 48] of no less than 20000 nM and a Kd [2, 48] of no less than 20000 nM. For the same sequence, the Kd [12, 48] was no less than 20000 nM, the Kd [15, 48] was 31.9 nM and the Kd [16, 48] was no less than 20000 nM. The Kd [3, 48] was no less than 20000 nM, the Kd [17, 48] was 154 nM and the Kd [18, 48] was no less than 20000 nM. It also gave a Kd [19, 48] of no less than 20000 nM, a Kd [4, 48] of no less than 20000 nM and a Kd [25, 48] of no less than 20000 nM.
FTSVGKLVHQ gave a Kd [23, 39] of 2390 nM and a Kd [1, 39] of 1360 nM.
In the case of KTSVGVNMCT, the Kd [23, 49] is reported as 8160 nM and the Kd [1, 49] is reported as 1810 nM.
EAVEDSRFW was tested, and the Kd [23, 37] was 22.2 nM and the Kd [29] was 13 nM.
ASSMVNGVVR was tested, and the Kd [30] was no less than 44100 nM, the Kd [23, 37] was 1400 nM and the Kd [31] was 47.7 nM. The Kd [1, 37] was 2060 nM.
With LINDQLIMK the Kd [8, 40] was 285 nM, the Kd [13, 40] was no less than 20000 nM and the Kd [27, 50] was no less than 20000 nM.
For ASILSRMAY, the Kd [8, 51] was 7.4 nM, the Kd [13, 51] was 974 nM and the Kd ([27]; source organism: Vibrio vulnificus YJ016) was no less than 20000 nM.
AVSSGKNIK gave an IC50 [5, 41] of 55300 nM and an IC50 [26] of no less than 164000 nM.
With IVYLIDCER the Kd [8, 52] was no less than 20000 nM, the Kd [13, 52] was 939 nM and the Kd ([27]; source organism: Salmonella enterica subsp. arizonae) was 88.3 nM.
RLSAAIGKAW gave a Kd [1, 49] of 6.2 nM.
With HNFRAPAPV the Kd [32] was no more than 0.1 nM.
Sequence MTMPLSCTK has a Kd [8, 40] of 2.3 nM, a Kd [13, 40] of 622 nM and a Kd [27, 50] of 671 nM.
Sequence GSSIGKMFEA has a Kd [23, 39] of 853 nM and a Kd [1, 39] of 3000 nM.
ALKEAIEMV gave a Kd [10, 53] of 1800 nM, a Kd [33] of 4 nM and a Kd [16, 53] of 127 nM.
Sequence DAASSRITK has an IC50 [5, 35] of no less than 121000 nM.
Sequence TASGKLVTQW has a Kd [23, 45] of 1090 nM and a Kd [1, 45] of 22.6 nM.
RLCYGGPWK was tested, and the Kd [8, 47] was 358 nM, the Kd [13, 47] was 517 nM and the Kd [27, 47] was no less than 20000 nM.
